What was measured:
TBP = TBP (human, UniProt P20226 1-339); test: smFRET
TBP;TFIIA = TBP;TFIIA (human;human, UniProt P20226;P52655;P52657 1-339;1-376;1-109, |); test: smFRET
Chain of TBP;TFIIA (P20226 whole entry, chain 1 of 3): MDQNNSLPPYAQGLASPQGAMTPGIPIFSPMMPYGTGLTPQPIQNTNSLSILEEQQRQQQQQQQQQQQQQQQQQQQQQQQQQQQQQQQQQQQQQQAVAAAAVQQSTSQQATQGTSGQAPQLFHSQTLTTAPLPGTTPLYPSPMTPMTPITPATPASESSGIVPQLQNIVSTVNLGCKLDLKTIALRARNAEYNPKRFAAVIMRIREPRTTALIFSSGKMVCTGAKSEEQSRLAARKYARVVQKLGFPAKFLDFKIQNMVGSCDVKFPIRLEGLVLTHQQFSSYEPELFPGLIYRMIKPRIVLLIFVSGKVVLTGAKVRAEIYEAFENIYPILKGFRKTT
Chain of TBP;TFIIA (P52655 whole entry, chain 2 of 3): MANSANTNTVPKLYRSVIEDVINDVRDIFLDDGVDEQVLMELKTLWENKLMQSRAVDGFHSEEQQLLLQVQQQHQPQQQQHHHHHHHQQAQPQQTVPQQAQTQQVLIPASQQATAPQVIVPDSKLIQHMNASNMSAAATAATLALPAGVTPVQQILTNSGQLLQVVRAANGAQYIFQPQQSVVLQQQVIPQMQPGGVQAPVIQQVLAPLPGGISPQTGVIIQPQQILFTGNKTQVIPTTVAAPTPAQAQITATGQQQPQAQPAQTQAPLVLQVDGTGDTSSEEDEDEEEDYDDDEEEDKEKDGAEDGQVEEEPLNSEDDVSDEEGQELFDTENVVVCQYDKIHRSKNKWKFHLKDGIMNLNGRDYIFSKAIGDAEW
Chain of TBP;TFIIA (P52657 whole entry, chain 3 of 3): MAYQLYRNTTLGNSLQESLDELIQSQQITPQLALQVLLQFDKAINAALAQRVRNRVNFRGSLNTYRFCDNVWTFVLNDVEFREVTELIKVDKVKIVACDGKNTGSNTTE

Chain of TBP (P20226 whole entry): as the sequence (P20226 whole entry, chain 1 of 3) above

B1: TATA(A3) smFRET construct (mixed)
DNA 1: CAGGCTAAAAAAGGGACG
DNA 2: CGTCCCTTTTTTAGCCTGCACCACCACCACCACCACCA
DNA 3: TGGTGGTGGTGGTGGTGGT
TBP
  binding result: binds
TBP;TFIIA
  binding result: binds
